Laboratory results published in patent US20200138716A1, “COMPOSITIONS AND METHODS FOR INDUCING NANOPARTICLE-MEDIATED MICROVASCULAR EMBOLIZATION OF TUMORS” (Poseida Therapeutics, Inc., priority 2014, published 2020).
Read-outs that look alike come from different tables or passages of the source.

Legend:
[1] = background values; cited from earlier work
[2] = system: human umbilical vein endothelial cells (HUVECs); test: CuFL1A fluorescence, extracellular NO of cultured HUVECs; assay type: cell-based; conditions: for effect of further additions of DEANO on CuFL1A emission: DEANO added; for CuFL1A fluorescence compared to extracellular environment of HUVECs: no DEANO
Procedure: Cells may be incubated with 1 μM or less, relative to total concentration, of the NO sensor in PBS buffer or a growth medium for imaging. Concentration may be adjusted to reduce the fluorescent signal intensity to desired levels. Imaging of extra-cellular NO may be performed directly in the growth medium for imaging, and images may be taken as often as needed following cell stimulation.
In another example study, pooled 4× passaged human umbilical vein endothelial cells (HUVECs) were grown in Corning Costar 96 well white plates with clear bottoms in EBM-2 media to 80-90% confluence. Half of the free metMb and metPEM suspensions were incubated with sodium sulfate to reduce the myoglobin back to oxyMb form. The free oxyMb and oxyPEM suspensions were then dialyzed for four hours to remove salt. The rest of the original metMb and metPEM suspensions were used as received.
A 4× concentrated FL1A stock solution (10 μM in PBS+gluc+ca+mg/DMSO), a 4× concentrated DEANO stock solution (200 μM in 10 mM NaOH), and a 4× concentrated LNNA stock solution (400 μM in PBS+glu+ca+mg) were prepared so that 50 μL of each was added per well to a final and consistent volume of 200 μL per well.
A 2× concentrated stock solution of metMb (50 mg/mL in PBS+gluc+ca+mg) and 2× concentrated oxyMb (50 mg/mL in PBS+gluc+ca+mg) solution were also prepared. […] Fluorescence readings were obtained from each well following a set 30-minute incubation period with each of the experimental groups.

[3] = CuFL1A fluorescence NO sensor assay in solution; assay type: biochemical; conditions: for CuFL1A fluorescence on addition of DEANO: DEANO added to the solution
Procedure: In various studies to test these potential mechanisms, PEM may be incubated with a NO probe. […] When non-emissive CuFL1A reacts with NO, Cu(II) is reduced to Cu(I), among other changes, to produce fluorescent FL1A-NO. In this manner, CuFL1A may be used as an NO sensor activated by fluorescence to assess the relative NO levels in solution. In various studies, cultured umbilical vein endothelial cells may be incubated with CuFL1A and either PEM or a control in order to assess changes in NO levels in the extracellular environment. In various studies, luminal chemiluminescence due to the presence of reactive oxygen species may be used to assess the biological consequences of PEM-bound NO promotion of neutrophil activation. The FL1A ligands may be dissolved in spectroscopic grade DMSO to achieve a final concentration of the stock solution of around […]. To determine the exact concentration, the stock solution may be diluted in pH 7 aqueous buffer and the absorbance of the bands at 504 and 499 nm may be measured with E=4.6×104 M-1 cm-1. The absorbance value and dilution factor may be recorded and the exact concentration of the ligand in the stock solution may be calculated. The DMSO stock solution of the metal-free ligand may be aliquoted in 50 μL portions and stored at -80° C. The aliquots may be thawed and the absorbance of the band at 504 or 499 nm may be checked before use. […] The copper complex may be prepared fresh, immediately before cell incubation, using one of the frozen aliquots of the ligand stock solution. […] The unused portion of the solution may be discarded by the end of the day. In an example study, half of the free MetMb and […] suspensions were incubated with sodium sulfate to reduce the myoglobin back to its oxyMb form. The free oxyMb and oxyPEM suspensions were then dialyzed for 4h to remove salt, and the rest of the original metMb and […] suspensions were used as received. […] A 2× concentrated stock solution of metMb (50 mg/mL in PBS) and oxyMb (50 mg/mL in PBS) was prepared. The final concentrations of empty polymersomes, […] and oxyPEM were determined by UV-Vis spectrometry and ICP-OES. The final volume in each well was 200 μL, and therefore 100 μL of each solution was added per well, thus diluting these original stock solutions by half. Fluorescence was measured various time points for each condition.

[4] = Oxygen equilibrium binding curves (Hemox Analyzer, Hill model); conditions: 37° C.; partial pressure of O2 at 50% saturation
Procedure: Oxygen equilibrium binding curves of PEM and free Mb dispersions may be measured using a Hemox™ Analyzer at physiological temperature (37° C.). In brief, samples may be allowed to saturate to a pO2 of 147 mm Hg using compressed air and then deoxygenated using a compressed nitrogen stream. UV-Vis absorbance measurements of oxygenated and deoxygenated samples may be recorded as a function of pO2 via dual wavelength spectroscopy. Oxygen-PEM/myoglobin equilibrium curves may be fit to a four-parameter (A0, A∞, P50, n) Hill model:
in which A0 and A∞ represent the absorbance at 0 mm Hg and at full O2 saturation, respectively. The pO2 represents the partial pressure of O2, and P50 represents the partial pressure of O2 where PEM/Mb is 50% saturated with oxygen. Lastly, ‘n’ represents the cooperativity coefficient of PEM/Mb. […] The lower O2 affinity (higher P50) of PEM than free myoglobin may be attributed to the shielding effect of the polymersome membrane, which was further found to delay the kinetics of O2 binding to PEM.

[5] = system: human neutrophils incubated with HUVECs; test: Luminol chemiluminescence, neutrophil activation on HUVECs; assay type: cell-based; conditions: for generation of reactive oxygen species compared to luminol control: neutrophils with HUVECs, 30 minutes, maximal concentrations (25 mg/mL polymer or protein; metPEM 1.3 mg/mL metMb, 23.5 mg/mL polymer)
Procedure: (§1) In another example study, similar to the previous study, pooled 4× passaged human umbilical vein endothelial cells (HUVECs) were grown in Corning Costar 96 well white plate with clear bottoms in EBM-2 media to 80-90% confluence. Half of the free metMb and […] suspensions were incubated with sodium sulfate to reduce the myoglobin back to oxyMb form. The free oxyMb and oxyPEM suspensions were then dialyzed for four hours to remove salt. The rest of the original metMb and […] suspensions were used as received. Further, a ficoll-paque density gradient separation was used to purify fresh human neutrophils and re-suspend in media at a concentration of 6×10^6 neutrophils/mL. In the assay, 50 mL aliquots were added per well, with a final volume of 200 μL per well, as in the study above. […] A 2× concentrated stock solution of metMb (50 mg/mL in PBS+gluc+ca+mg) and 2× concentrated stock of oxyMb (50 mg/mL in PBS+gluc+ca+mag) were prepared. The final concentrations of empty polymersome, […], and oxyPEM were determined by UV-Vis spectrometry and ICP-OES. […] Further, 600 μM of a luminol solution in media containing 18.75 μ/mL horseradish peroxidase (HRP) was prepared, with final concentrations in assay wells of around 120 μM luminol and 3.75 μ/mL HRP. […] A luminometor was used to continuously measure instantaneous reactive oxygen species generation after addition of each treatment administered to the HUVECs with and without neutrophils (total assay time 30 minutes). At the end of the study, sample supernatant were aliquoted and the cells were fixed and frozen for future myeloperoxidase assays or MPO ELISAs to look at degranulation.

HUVECs = test: Luminol chemiluminescence (reactive oxygen species) with HUVECs alone; assay type: cell-based, human; conditions: HUVECs without neutrophils, 30 minutes
Procedure: as §1, with “received.” for “received. Further, a ficoll-paque density gradient separation was used to purify fresh human neutrophils and re-suspend in media at a concentration of 6×10^6 neutrophils/mL. In the assay, 50 mL aliquots were added per well, with a final volume of 200 μL per well, as in the study above.”

[6] = no DEANO, higher concentrations (e.g. 25 mg/mL metMb)

In the case of “hemoglobin: oxygen-transporting protein in human red blood cells”, the P50 [1] is listed as 25-50 mmHg and the “affinity for oxygen / oxygen tension of release” value [1] is listed as 20 to 50 mmHg.

In the case of `CCN(CC)/[N+]([O-])=N/O.CCNCC` [DEANO, diethylamine NO, reference compound], the “increase in CuFL1A emission in extracellular environment of HUVECs” value ([2]; 30-minute incubation) is reported as roughly 1.5 fold and the “CuFL1A fluorescence compared to its intensity in PBS” value ([3]; solution, no cells) is reported as “around seven-fold”.

For hemoglobin A: Normal adult hemoglobin A, the P50 [1] is listed as 26.5 mmHg.

B1: free Mb: free (unencapsulated) myoglobin (protein, UniProt P68082 2-154, looked up)
Myoglobin: GLSDGEWQQVLNVWGKVEADIAGHGQEVLIRLFTGHPETLEKFDKFKHLKTEAEMKASEDLKKHGTVVLTALGGILKKKGHHEAELKPLAQSHATKHKIPIKYLEFISDAIIHVLHSKHPGDFGADAQGAMTKALELFRNDIAAKYKELGFQG
For B1, the P50 [4] is listed as roughly 2 mm Hg, the P50 [1] is listed as 2.75 mmHg and the “affinity for oxygen / oxygen tension of release” value [1] is listed as 2 to 3 mmHg.

B2: metMb: metmyoglobin, free protein (protein, UniProt P68082 2-154, looked up)
Myoglobin: B1 Myoglobin
modifications: met (ferric) form
notes: metmyoglobin, free protein
For B2, the “effect of further additions of DEANO on CuFL1A emission” value [2] was “only able to partially mitigate”, the “CuFL1A fluorescence compared to extracellular environment of HUVECs” value [2] was “diminished” and the “CuFL1A fluorescence on addition of DEANO” value [3] was “the degree of amplification in CuFL1A emission was lower”. For the same molecule, the “CuFL1A fluorescence compared to its intensity in PBS” value [3, 6] was “dramatically reduced”, the “total oxidative burst (integrated luminol chemiluminescence), neutrophil activation” value ([5]; 30 minute incubation) was “did not have any effects” and the “generation of reactive oxygen species compared to luminol control” value [5] was “no appreciable generation of reactive oxygen species”. The “generation of reactive oxygen species (luminol chemiluminescence)” value (HUVECs) was “do not, in and of themselves, result in the generation of reactive oxygen species”.

B3: oxyMb: oxygenated myoglobin, free protein (protein, UniProt P68082 2-154, looked up)
Myoglobin: B1 Myoglobin
modifications: oxygenated form
notes: oxygenated myoglobin, free protein
In the case of B3, the “effect of further additions of DEANO on CuFL1A emission” value [2] is reported as “not able to mitigate”, the “CuFL1A fluorescence compared to extracellular environment of HUVECs” value [2] is reported as “diminished” and the “CuFL1A fluorescence on addition of DEANO” value [3] is reported as “did not augment CuFL1A fluorescence”. The “CuFL1A fluorescence compared to its intensity in PBS” value [3, 6] was “markedly decreased to baseline values”, the “CuFL1A fluorescence compared to its intensity in PBS” value ([3]; no DEANO, low concentrations (metMb up to 5 mg/mL)) was “greater” and the “effect of DEANO addition on neutrophil activation” value ([5]; DEANO added) was “did not mitigate the levels of neutrophil activation”. For the same molecule, the “generation of reactive oxygen species compared to luminol control” value [5] was “statistically significant increase” and the “generation of reactive oxygen species (luminol chemiluminescence)” value (HUVECs) was “do not, in and of themselves, result in the generation of reactive oxygen species”.
